Results on nine sequences are retold here after the Immune Epitope Database (IEDB).

Among the targets are HLA-B*44:03; HLA-B*07:02; HLA-B*53:01; HLA-B*57:01.
Holding throughout (assay): IEDB peptide-MHC binding, purified MHC/competitive/radioactivity; ≥ and ≤ were set here for values at or beyond the usual limits of such assays
Holding throughout (details): source organism: Bordetella pertussis

For AQGKALLYR, the IC50 (in general, the midpoint of a concentration-inhibition curve) with HLA-B*44:03 was ≥ 70.1 µM.
Regarding GATRAVDSL, the IC50 with HLA-B*07:02 came to 69.6 µM.
Take MHTIASILL: the IC50 with HLA-B*53:01 was found to be 7.4 µM.
On to PASANTLLL, for which the IC50 with HLA-B*07:02 turned out to be 15.7 µM.
For the sequence RASASRARI, the IC50 with HLA-B*57:01 is ≥ 70400 nM.
In the case of RVAPPAVAL, in the assay with HLA-B*07:02, the IC50 was 0.349 µM.
For SGEGRVNIG, in the assay with HLA-B*53:01, the IC50 came to 3.18 µM.
Same read-out and setting: with VVETAQPLP the figure was 69.9 µM.
In the case of WTFHAGYRY, the IC50 in the assay with HLA-B*57:01 worked out at 1400 nM.
